In PMC7566557 (Brain Communications, 2020):
Like-named read-outs stand apart in the source and are kept apart here.

Legend:
Myc-(C32G)CAP2 = Myc-(C32G)CAP2 (UniProt P40123); experiment: proximity ligation
[1] = biological target: cofilin (endogenous, primary hippocampal neurons) (rat (endogenous in primary hippocampal neurons)) (UniProt P45592); experiment: proximity ligation
[2] = biological target: the molecule itself; experiment: non-reducing SDS-PAGE with Western blot
[3] = biological target: the molecule itself; experiment: non-reducing SDS-PAGE with Western blot; remark: listed apart in the source

Chain of cofilin (endogenous, primary hippocampal neurons) (rat (endogenous in primary hippocampal neurons)) (P45592 whole entry): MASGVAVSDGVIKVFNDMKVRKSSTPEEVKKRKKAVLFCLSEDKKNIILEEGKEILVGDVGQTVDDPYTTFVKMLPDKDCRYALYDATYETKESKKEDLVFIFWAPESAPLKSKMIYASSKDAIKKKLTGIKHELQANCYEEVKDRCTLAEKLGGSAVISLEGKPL

“EGFP-CAP2 (from UniProt Q9CYT6 1-476) (natural protein)” showed a PLA clusters/μm (Myc-(C32G)CAP2) of 0.566 clusters/μm and a PLA clusters/μm (cLTP) (Myc-(C32G)CAP2) of 0.461 clusters/μm.

Work on “Myc-(C32G)CAP2 (from UniProt P40123 1-477) (natural protein)” yielded a PLA clusters/μm [1] of 0.0144 clusters/μm and a PLA clusters/μm (cLTP) [1] of 0.0315 clusters/μm.

“Myc-CAP2 (from UniProt Q9CYT6 1-476) (natural protein)” gave a PLA clusters/μm [1] of 0.032 clusters/μm, a PLA clusters/μm (CTRL) [1] of 0.0317 clusters/μm and a PLA clusters/μm (cLTP) [1] of 0.0984 clusters/μm.

B1: CAP2 (endogenous, human hippocampus) (natural protein)
chain: MANMQGLVERLERAVSRLESLSAESHRPPGNCGEVNGVIAGVAPSVEAFDKLMDSMVAEFLKNSRILAGDVETHAEMVHSAFQAQRAFLLMASQYQQPHENDVAALLKPISEKIQEIQTFRERNRGSNMFNHLSAVSESIPALGWIAVSPKPGPYVKEMNDAATFYTNRVLKDYKHSDLRHVDWVKSYLNIWSELQAYIKEHHTTGLTWSKTGPVASTVSAFSVLSSGPGLPPPPPPLPPPGPPPLFENEGKKEESSPSRSALFAQLNQGEAITKGLRHVTDDQKTYKNPSLRAQGGQTQSPTKSHTPSPTSPKSYPSQKHAPVLELEGKKWRVEYQEDRNDLVISETELKQVAYIFKCEKSTIQIKGKVNSIIIDNCKKLGLVFDNVVGIVEVINSQDIQIQVMGRVPTISINKTEGCHIYLSEDALDCEIVSAKSSEMNILIPQDGDYREFPIPEQFKTAWDGSKLITEPAEIMA
In the case of B1, the “stoichiometry N” value [2] is reported as 2.

B2: CAP2 (endogenous, primary hippocampal neurons) (natural protein)
chain: MADMLGLMQRLEFAVSRLERLSSGLHEPPGGCGEVNSLSRGIVAPSVEAFDKLINSMVAEFLKNSRVLAGDVETHAEMVHGAFQAQRAFLLMVSQHQQPQENEVAVLLKPISEKIQEIQTFRERNRGSDMFNHLSAVSESIAALGWIAVSPKPGPYVKEMNDAATFYTNRVLRDYKHSDLRHVDWVRSYLKIWSELQAYIKEHHTTGLTWSKTGPVASTASAFSILSSGPGLPPPPPPPPPPGPPPPFENEGGKEEPSPSRSALFAQLNQGEAITKGLRHVTDDKKIYKNPSLRAQGQIRSPTKTRTPSPTSSKSNSPQKHAPVLELEGKKWRVEYQEDRNDLVISETELKQVAYIFKCDKSTLQIKGKVNSITVDNCKKFGLVFDHVVGIVEVINSKDIQIQVMGRVPTISINKTEGCHLYLSKDALDCEIVSAKSSEMNVLVPQGDDYREFPIPEQFKTIWDGSKLITEPAEIMA
B2 was tested, and the “stoichiometry N” value [2] was 2.

B3: CAP2 (endogenous, rat hippocampus) (natural protein)
chain: B2 chain
With B3 the “stoichiometry N” value [2] was 2.

B4: CAP2 (endogenous, mouse hippocampus) (natural protein)
chain: MTDMAGLMERLERAVIRLEQLSAGLDGPPRGCGEVNGVNGGVAPSVEAFDKLINSMVAEFLKNSRVLAGDVETHAEMVHGAFQAQRAFLLMVSQYQQPQENEVAVLLKPISEKIQEIQTFRERNRGSNMFNHLSAVSESIAALGWIAVSPKPGPYVKEMNDAATFYTNRVLKDYKHSDLRHVDWVRSYLNIWSELQAYIREHHTTGLTWSKTGPVASTASAFSILSSGPGLPPPPPPPPPPGPPPPFENEDKKEEPSPSRSALFAQLNQGEAITKGLRHVTDDKKTYKNPSLRAQGQIRSPTKTHTPSPTSPKSNSPQKHTPVLELEGKKWRVEYQEDRNDLVISETELKQVAYIFKCDKSTLQIKGKVNSITVDNCKKFGLVFDHVVGIVEVINSKDIQIQVMGRVPTISINKTEGCHLYLSEDALDCEIVSAKSSEMNVLVPQDDDYREFPIPEQFKTIWDGSKLVTEPAEIMA
In the case of B4, the “stoichiometry N” value [2] is reported as 2.

B5: Myc-CAP2 (natural protein)
chain: B4 chain
In the case of B5, the “stoichiometry N” value [3] is reported as 2.
